Measurements: PMC12316933

Biological target: KS17 N2 NA (recombinant N2 neuraminidase head of H3N2 A/Kansas/14/2017) (Influenza A virus H3N2 A/Kansas/14/2017)
Test: cryo-EM structure

## KS17 N2 NA (recombinant N2 neuraminidase head of H3N2 A/Kansas/14/2017) (enzyme)
  stoichiometry N: 4
